Assay results from paper PMC9084902, “Low-Molecular Weight Protamine Overcomes Chondroitin Sulfate Inhibition of Neural Regeneration” (Frontiers in Cell and Developmental Biology, 2022).
Ends that are not written are not given here.

Experiments:
[1] = system: cervical spinal cord; assay: distribution of fluorescent LMWP to spinal cord after subcutaneous administration; type: in vivo, mouse; details: 2 h, confocal
Procedure: The TAMRA-labelled LMWP was obtained from commercial provider Caslo ApS (DK-2800, Kongens Lyngby, Denmark). Sixteen micrograms of TAMRA-LMWPor unconjugated TAMRA (in 200 ul of 0.9% NaCl) was injected subcutaneously to upper back area to healthy adult mice (n = 2–3 animals/group). At the end of the experiment (2 h after injection), the animals were perfused with PBS and then with 4% paraformaldehyde (PFA) in PBS. The spinal cord was dissected and further fixed in PFA overnight. One hundred µm-thick longitudinal sections of the cervical spinal cord were cut with vibratome and imaged with Zeiss LSM880 confocal, 20x objective.

[2] = solid phase binding of mutated PTPσ ectodomain to aggrecan; details: 80 nM, 10 μg/ml aggrecan coating, overnight 4°C, HRP anti-Fc/OPD 492 nm
Text: The N-terminal extracellular part of PTPσ (protein tyrosine phosphatase sigma; PTPRS) that contains the three Ig domains (amino acids 1-321) and mediates CSPG binding ([Shen et al., 2009]) was cloned using the PTPσ cDNA kindly provided by Dr. John Flanagan (Harvard University). The PTPσ mutant lacking the CS binding site in the Ig1 domain was produced as described ([Shen et al., 2009]). The recombinants were produced as Fc-tagged proteins in 293T HEK cells and purified on protein A Sepharose.
The competition assay for LMWP in binding of PTPσ to aggrecan was done in a similar way as earlier ([Paveliev et al., 2016]). Briefly, after overnight coating with 10 μg/ml aggrecan (150 ul/well) at 4°C 96-well tissue culture plates (Nunc) were washed two times with 0.05% Tween-20 in PBS and were blocked for 1 h at room temperature with 1%BSA and 0.05% Tween-20 in PBS. The recombinant wild type PTPσ ectodomain or the mutated ectodomain lacking CS binding (80 nM) were mixed with different concentrations of LMWP in 1% BSA and 0.05% Tween-20 in PBS, and were incubated in the plates overnight at 4°C. After washing with 0.05% Tween20 (3 times, room temperature), the wells were incubated for 1 h (room temperature) with HRP conjugated goat anti-human FC part of IgG (1:5000, in 1% BSA and 0.05% Tween20 PBS) to detect the bound PTPσ. […]

Row | Molecule | fluorescent signal in spinal cord parenchyma ([1]; 16 µg s.c. in 200 µl 0.9% NaCl, compared to TAMRA or noninjected animals, n = 2–3) | parenchymal accumulation in spinal cord ([1]; 16 µg s.c., cervical region) | perivascular accumulation in spinal cord ([1]; 16 µg s.c., cervical region) | binding to CS chains of aggrecan [2]
1 | TAMRA-LMWP: fluorescent TAMRA-labelled LMWP (Caslo ApS) (VSRRRRRRGGRRRR; also: TAMRA label, site not given here) | clear fluorescent signal in the spinal cord parenchyma | Parenchymal accumulation | Perivascular accumulation | –
2 | recombinant ectodomain of PTPσ mutated in a critical lysine residue: PTPσ mutant lacking the CS binding site in the Ig1 domain, Fc-tagged, produced in 293T HEK cells (protein, UniProt Q13332 30-1282, looked up, extracellular domain lysine mutation in Ig1 (position not given); Fc tag) extracellular domain: EEPPRFIKEPKDQIGVSGGVASFVCQATGDPKPRVTWNKKGKKVNSQRFETIEFDESAGAVLRIQPLRTPRDENVYECVAQNSVGEITVHAKLTVLREDQLPSGFPNIDMGPQLKVVERTRTATMLCAASGNPDPEITWFKDFLPVDPSASNGRIKQLRSETFESTPIRGALQIESSEETDQGKYECVATNSAGVRYSSPANLYVRELREVRRVAPRFSILPMSHEIMPGGNVNITCVAVGSPMPYVKWMQGAEDLTPEDDMPVGRNVLELTDVKDSANYTCVAMSSLGVIEAVAQITVKSLPKAPGTPMVTENTATSITITWDSGNPDPVSYYVIEYKSKSQDGPYQIKEDITTTRYSIGGLSPNSEYEIWVSAVNSIGQGPPSESVVTRTGEQAPASAPRNVQARMLSATTMIVQWEEPVEPNGLIRGYRVYYTMEPEHPVGNWQKHNVDDSLLTTVGSLLEDETYTVRVLAFTSVGDGPLSDPIQVKTQQGVPGQPMNLRAEARSETSITLSWSPPRQESIIKYELLFREGDHGREVGRTFDPTTSYVVEDLKPNTEYAFRLAARSPQGLGAFTPVVRQRTLQSKPSAPPQDVKCVSVRSTAILVSWRPPPPETHNGALVGYSVRYRPLGSEDPEPKEVNGIPPTTTQILLEALEKWTQYRITTVAHTEVGPGPESSPVVVRTDEDVPSAPPRKVEAEALNATAIRVLWRSPAPGRQHGQIRGYQVHYVRMEGAEARGPPRIKDVMLADAQWETDDTAEYEMVITNLQPETAYSITVAAYTMKGDGARSKPKVVVTKGAVLGRPTLSVQQTPEGSLLARWEPPAGTAEDQVLGYRLQFGREDSTPLATLEFPPSEDRYTASGVHKGATYVFRLAARSRGGLGEEAAEVLSIPEDTPRGHPQILEAAGNASAGTVLLRWLPPVPAERNGAIVKYTVAVREAGALGPARETELPAAAEPGAENALTLQGLKPDTAYDLQVRAHTRRGPGPFSPPVRYRTFLRDQVSPKNFKVKMIMKTSVLLSWEFPDNYNSPTPYKIQYNGLTLDVDGRTTKKLITHLKPHTFYNFVLTNRGSSLGGLQQTVTAWTAFNLLNGKPSVAPKPDADGFIMVYLPDGQSPVPVQSYFIVMVPLRKSRGGQFLTPLGSPEDMDLEELIQDISRLQRRSLRHSRQLEVPRPYIAARFSVLPPTFHPGDQKQYGGFDNRGLEPGHRYVLFVLAVLQKSEPTFAASPFSDPFQLDNPDPQPIVDGEEG | – | – | – | lacks the ability to bind to CS chains of the aggrecan substrate
